PMC3526297

Biological target: GST-Rev3 (S. cerevisiae) (UniProt P14284)
Assay: affinity co-purification of the polymerase from yeast

Sequence of UniProt P14284 (P14284 whole entry): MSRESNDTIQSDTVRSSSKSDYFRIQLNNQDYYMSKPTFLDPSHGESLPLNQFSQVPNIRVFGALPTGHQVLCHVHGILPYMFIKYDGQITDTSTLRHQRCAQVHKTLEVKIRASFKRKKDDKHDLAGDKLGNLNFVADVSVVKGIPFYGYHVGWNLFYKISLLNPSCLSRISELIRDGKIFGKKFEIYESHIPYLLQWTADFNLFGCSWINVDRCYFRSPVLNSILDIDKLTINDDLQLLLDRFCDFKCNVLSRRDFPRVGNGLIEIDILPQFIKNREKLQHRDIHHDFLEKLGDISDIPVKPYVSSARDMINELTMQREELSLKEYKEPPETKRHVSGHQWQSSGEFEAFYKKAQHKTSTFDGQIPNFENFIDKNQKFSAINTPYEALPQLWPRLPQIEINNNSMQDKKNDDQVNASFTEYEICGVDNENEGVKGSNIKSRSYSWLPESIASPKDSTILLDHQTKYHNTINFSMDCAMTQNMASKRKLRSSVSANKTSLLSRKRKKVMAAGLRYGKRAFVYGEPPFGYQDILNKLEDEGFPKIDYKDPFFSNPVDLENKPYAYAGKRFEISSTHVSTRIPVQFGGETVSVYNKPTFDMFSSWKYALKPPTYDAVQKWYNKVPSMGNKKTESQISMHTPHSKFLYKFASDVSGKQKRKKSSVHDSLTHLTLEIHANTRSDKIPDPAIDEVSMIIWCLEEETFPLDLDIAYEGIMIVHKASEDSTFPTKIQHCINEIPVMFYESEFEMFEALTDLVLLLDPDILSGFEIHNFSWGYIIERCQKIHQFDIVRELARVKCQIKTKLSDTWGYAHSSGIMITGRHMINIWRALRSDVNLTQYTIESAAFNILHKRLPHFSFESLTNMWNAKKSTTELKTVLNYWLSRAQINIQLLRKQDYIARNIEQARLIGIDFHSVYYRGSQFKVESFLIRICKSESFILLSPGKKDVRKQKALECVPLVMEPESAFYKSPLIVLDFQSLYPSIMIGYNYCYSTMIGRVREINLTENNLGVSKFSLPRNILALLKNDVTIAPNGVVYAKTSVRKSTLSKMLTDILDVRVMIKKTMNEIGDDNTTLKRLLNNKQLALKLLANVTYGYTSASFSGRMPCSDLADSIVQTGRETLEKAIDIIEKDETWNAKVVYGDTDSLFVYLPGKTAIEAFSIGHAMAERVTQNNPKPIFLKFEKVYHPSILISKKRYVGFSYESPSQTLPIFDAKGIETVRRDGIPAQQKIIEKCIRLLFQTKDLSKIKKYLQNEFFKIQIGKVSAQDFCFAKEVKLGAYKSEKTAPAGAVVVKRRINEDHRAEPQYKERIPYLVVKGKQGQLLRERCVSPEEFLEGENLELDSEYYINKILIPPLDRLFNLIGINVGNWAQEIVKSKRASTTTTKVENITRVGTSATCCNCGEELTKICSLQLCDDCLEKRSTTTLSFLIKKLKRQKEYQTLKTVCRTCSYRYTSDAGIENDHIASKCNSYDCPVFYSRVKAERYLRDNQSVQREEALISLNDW

Q: “Pol32 with an N-terminal His7 tag (from UniProt P47110 1-350) (natural protein)” was tested. Which stoichiometry of the complex after Ni-chelate chromatography (percent) did it give?
A: 100%
